Experimental data as given in publication PMC6879718, “Mycobacterial OtsA Structures Unveil Substrate Preference Mechanism and Allosteric Regulation by 2-Oxoglutarate and 2-Phosphoglycerate” (mBio, 2019).
Where two headings read alike, the source gives them in different places. Blank lines part the entries; values can stand above or below the compound they belong to.

How the values were obtained:
Assay type in all cases: biochemical, Mycobacterium thermoresistibile
[1] = tested on: Nc1ncnc2c1ncn2[C@@H]1O[C@H](COP(=O)(O)OP(=O)(O)O[C@H]2O[C@H](CO)[C@@H](O)[C@H](O)[C@H]2O)[C@@H](O)[C@H]1O; test: OtsA kinetic parameters, continuous colorimetric coupled assay (R213E); settings: other: R213E; G6P fixed at 10 mM for NDP-glucose, ADP-glucose […] for G6P; pH 7.5; 37.0 °C
Protocol: (§1) Formation of T6P was assessed by a continuous colorimetric assay that followed the release of NDP by measuring the oxidation of NADH at 340 nm, in the presence of pyruvate kinase and lactate dehydrogenase. All reagents used were obtained from Sigma-Aldrich. The enzymatic reactions (200-μl reaction mixture) were performed at 37°C, and the reaction mixtures contained 50 mM Tris (pH 7.5), 200 mM NaCl, 10 mM MgCl2, 50 mM KCl, 0.3 mM NADH, 2.5 mM phosphoenolpyruvate (PEP), 10 units of pyruvate kinase-lactate dehydrogenase, 0.1 μM enzyme, and various concentrations of G6P and NDP-glucose to determine kinetic parameters.

[2] = tested on: O=C[C@H](O)[C@@H](O)[C@H](O)[C@H](O)COP(=O)(O)O; test: as above; settings: other: R213E; G6P fixed at 10 mM for NDP-glucose, ADP-glucose […] for G6P; pH 7.5; 37.0 °C
Protocol: as §1

[3] = tested on: Nc1nc2c(ncn2[C@@H]2O[C@H](COP(=O)(O)OP(=O)(O)O[C@H]3O[C@H](CO)[C@@H](O)[C@H](O)[C@H]3O)[C@@H](O)[C@H]2O)c(=O)[nH]1; test: OtsA kinetic parameters, continuous colorimetric coupled assay (V363F); settings: other: V363F; G6P fixed at 10 mM for NDP-glucose, ADP-glucose […] for G6P; pH 7.5; 37.0 °C
[4] = tested on: Nc1ncnc2c1ncn2[C@@H]1O[C@H](COP(=O)(O)OP(=O)(O)O[C@H]2O[C@H](CO)[C@@H](O)[C@H](O)[C@H]2O)[C@@H](O)[C@H]1O; test: as above; settings: other: V363F; G6P fixed at 10 mM for NDP-glucose, ADP-glucose […] for G6P; pH 7.5; 37.0 °C
[5] = tested on: O=C[C@H](O)[C@@H](O)[C@H](O)[C@H](O)COP(=O)(O)O; test: as above; settings: other: V363F; G6P fixed at 10 mM for NDP-glucose, ADP-glucose […] for G6P; pH 7.5; 37.0 °C
[6] = molecular target: M. thermoresistibile OtsA wild type (Mycolicibacterium thermoresistibile, UniProt G7CGT2); test: Effect of feedback inhibitors and allosteric regulators on OtsA activity (wild type)
[7] = molecular target: T1, M. thermoresistibile OtsA R213E (Mycolicibacterium thermoresistibile, UniProt G7CGT2, R213E); test: Effect of allosteric regulators on OtsA activity (R213E); settings: R213E, G6P and ADP-glucose both 0.3 mM
T1 sequence (G7CGT2 1-486 R213E): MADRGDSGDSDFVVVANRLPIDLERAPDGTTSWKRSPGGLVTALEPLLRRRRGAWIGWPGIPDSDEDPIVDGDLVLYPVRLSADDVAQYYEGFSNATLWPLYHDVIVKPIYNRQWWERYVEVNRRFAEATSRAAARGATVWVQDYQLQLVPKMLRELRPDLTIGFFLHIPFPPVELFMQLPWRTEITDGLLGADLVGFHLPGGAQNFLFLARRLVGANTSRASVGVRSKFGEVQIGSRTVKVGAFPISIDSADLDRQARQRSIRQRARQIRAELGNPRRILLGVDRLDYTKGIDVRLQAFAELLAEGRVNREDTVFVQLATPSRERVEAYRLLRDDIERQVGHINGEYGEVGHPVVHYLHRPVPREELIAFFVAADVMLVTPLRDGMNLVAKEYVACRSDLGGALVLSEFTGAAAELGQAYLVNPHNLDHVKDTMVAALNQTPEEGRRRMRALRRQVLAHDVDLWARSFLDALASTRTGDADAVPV
Protocol: as §1, with “.” for “Formation of T6P was assessed by a continuous colorimetric assay that followed the release of NDP by measuring the oxidation of NADH at 340 nm, in the presence of pyruvate kinase and lactate dehydrogenase.”
(§2) […]. All experiments were performed in triplicate in a PHERAstar plate reader (BMG Labtech), and data were analyzed with Prism 5 (GraphPad Software).

[8] = molecular target: T2, M. thermoresistibile OtsA R384E (Mycolicibacterium thermoresistibile, UniProt G7CGT2, R384E); test: Effect of allosteric regulators on OtsA activity (R384E); settings: R384E, G6P and ADP-glucose both 0.3 mM
T2 sequence (G7CGT2 1-486 R384E): T1 sequence (G7CGT2 1-486 R213E)
Protocol: as §1, with “.” for “Formation of T6P was assessed by a continuous colorimetric assay that followed the release of NDP by measuring the oxidation of NADH at 340 nm, in the presence of pyruvate kinase and lactate dehydrogenase.”
as §2

[9] = tested on: Nc1nc2c(ncn2[C@@H]2O[C@H](COP(=O)(O)OP(=O)(O)O[C@H]3O[C@H](CO)[C@@H](O)[C@H](O)[C@H]3O)[C@@H](O)[C@H]2O)c(=O)[nH]1; test: OtsA kinetic parameters, continuous colorimetric coupled assay (L319I, E367L); settings: other: L319I, G6P fixed at 10 mM for NDP-glucose, ADP-glucose […] for G6P, pH 7.5, 37.0 °C
[10] = tested on: Nc1ncnc2c1ncn2[C@@H]1O[C@H](COP(=O)(O)OP(=O)(O)O[C@H]2O[C@H](CO)[C@@H](O)[C@H](O)[C@H]2O)[C@@H](O)[C@H]1O; test: as above; settings: other: L319I, G6P fixed at 10 mM for NDP-glucose, ADP-glucose […] for G6P, pH 7.5, 37.0 °C
[11] = tested on: O=C[C@H](O)[C@@H](O)[C@H](O)[C@H](O)COP(=O)(O)O; test: as above; settings: other: L319I, G6P fixed at 10 mM for NDP-glucose, ADP-glucose […] for G6P, pH 7.5, 37.0 °C
[12] = tested on: Nc1ncnc2c1ncn2[C@@H]1O[C@H](COP(=O)(O)OP(=O)(O)O[C@H]2O[C@H](CO)[C@@H](O)[C@H](O)[C@H]2O)[C@@H](O)[C@H]1O; test: OtsA kinetic parameters, continuous colorimetric coupled assay (R384E); settings: other: R384E; G6P fixed at 10 mM for NDP-glucose, ADP-glucose […] for G6P; pH 7.5; 37.0 °C
Protocol: as §1

[13] = tested on: O=C[C@H](O)[C@@H](O)[C@H](O)[C@H](O)COP(=O)(O)O; test: as above; settings: other: R384E; G6P fixed at 10 mM for NDP-glucose, ADP-glucose […] for G6P; pH 7.5; 37.0 °C
Protocol: as §1

[14] = wild type, G6P and ADP-glucose both 0.3 mM

Compound: M. thermoresistibile OtsA R213E (Mycolicibacterium thermoresistibile ATCC 19527; R213E)
Km [1]: 310 ± 10 µM
kcat [1]: 56 ± 2 s⁻¹
kcat/Km [1]: 180000 ± 13000 M⁻¹ s⁻¹
Km [2]: 3300 ± 300 µM
kcat [2]: 33 ± 2 s⁻¹
kcat/Km [2]: 10000 ± 1000 M⁻¹ s⁻¹

Compound: M. thermoresistibile OtsA V363F (Mycolicibacterium thermoresistibile ATCC 19527; V363F)
Km [3]: 740 ± 80 µM
kcat [3]: 14 ± 1 s⁻¹
kcat/Km [3]: 19000 ± 3000 M⁻¹ s⁻¹
Km [4]: 600 ± 30 µM
kcat [4]: 11 ± 1 s⁻¹
kcat/Km [4]: 18000 ± 2000 M⁻¹ s⁻¹
Km [5]: 3100 ± 200 µM
kcat [5]: 19 ± 1 s⁻¹
kcat/Km [5]: 6100 ± 700 M⁻¹ s⁻¹

Compound: O=C(O)CCC(=O)C(=O)O [2OG, 2-oxoglutarate]
nH, Hill coefficient (95% confidence interval) [6, 14]: 1.4 (1.1–1.7)
IC50 ([6]; wild type, G6P and ADP-glucose both 0.3 mM, read-out: IC50 (95% confidence interval)): 1800 µM
effect on OtsA activity [7]: abolished the strong response
nH, Hill coefficient (95% confidence interval) [7]: 0.26 (0.16–0.35)
IC50 ([7]; read-out: IC50 (95% confidence interval)): 73000 µM
effect on OtsA activity [8]: strong activator
nH, Hill coefficient (95% confidence interval) [8]: 2.5 (1.4–3.5)
EC50 ([8]; read-out: EC50 (95% confidence interval), activation): 700 µM

Compound: M. thermoresistibile OtsA L319I, E367L (Mycolicibacterium thermoresistibile ATCC 19527; E367L/L319I)
Km [9]: 700 ± 50 µM
kcat [9]: 9.2 ± 0.4 s⁻¹
kcat/Km [9]: 13000 ± 2000 M⁻¹ s⁻¹
Km [10]: 630 ± 40 µM
kcat [10]: 14 ± 1 s⁻¹
kcat/Km [10]: 22000 ± 3000 M⁻¹ s⁻¹
Km [11]: 3700 ± 200 µM
kcat [11]: 21 ± 1 s⁻¹
kcat/Km [11]: 5700 ± 500 M⁻¹ s⁻¹

Compound: O=C(O)C(CO)OP(=O)(O)O (stereo not shown) [2PG, 2-phosphoglyceric acid]
IC50 [6]: 2300 µM
nH, Hill coefficient (95% confidence interval) [6, 14]: 2.0 (1.4–2.7)
nH, Hill coefficient (95% confidence interval) [7]: 0.51 (0.40–0.63)
effect on OtsA activity [8]: no effect

effect on OtsA activity [6, 14]: no discernible impact on OtsA activity
Compound: O=S(=O)(O)CCNC1CCCCC1 [CHES, N-cyclohexyl-2-aminoethanesulfonic acid]

Compound: M. thermoresistibile OtsA R384E (Mycolicibacterium thermoresistibile ATCC 19527; R384E)
Km [12]: 1900 ± 200 µM
kcat [12]: 3.2 ± 0.1 s⁻¹
kcat/Km [12]: 1700 ± 200 M⁻¹ s⁻¹
Km [13]: 2900 ± 200 µM
kcat [13]: 2.1 ± 0.2 s⁻¹
kcat/Km [13]: 770 ± 50 M⁻¹ s⁻¹
